In patent US7067277B1, “Chimeric G proteins and uses thereof” (H. Lundbeck A/S, priority 1999, dated 2006):
Where a chain is given by its changes, count along the chain named.

T1: h Y1 (Homo sapiens, UniProt P25929)
T1 construct: expressed in transfected cells; host or cells: COS-7
T1 sequence (P25929 1-384): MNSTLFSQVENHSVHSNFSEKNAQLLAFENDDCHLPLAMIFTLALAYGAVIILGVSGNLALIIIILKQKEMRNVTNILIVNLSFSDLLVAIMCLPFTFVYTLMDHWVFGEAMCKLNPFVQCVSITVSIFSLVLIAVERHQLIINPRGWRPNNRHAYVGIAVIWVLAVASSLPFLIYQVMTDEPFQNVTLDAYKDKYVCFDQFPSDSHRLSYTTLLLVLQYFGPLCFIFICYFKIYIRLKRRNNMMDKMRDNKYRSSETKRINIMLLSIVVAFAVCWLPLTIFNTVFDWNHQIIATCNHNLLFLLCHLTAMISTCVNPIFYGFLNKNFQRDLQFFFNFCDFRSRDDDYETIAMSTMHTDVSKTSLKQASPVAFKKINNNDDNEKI

T2: h α2B adr (Homo sapiens, UniProt P18089)
T2 construct: expressed in transfected cells; host or cells: COS-7
T2 sequence (P18089 1-450): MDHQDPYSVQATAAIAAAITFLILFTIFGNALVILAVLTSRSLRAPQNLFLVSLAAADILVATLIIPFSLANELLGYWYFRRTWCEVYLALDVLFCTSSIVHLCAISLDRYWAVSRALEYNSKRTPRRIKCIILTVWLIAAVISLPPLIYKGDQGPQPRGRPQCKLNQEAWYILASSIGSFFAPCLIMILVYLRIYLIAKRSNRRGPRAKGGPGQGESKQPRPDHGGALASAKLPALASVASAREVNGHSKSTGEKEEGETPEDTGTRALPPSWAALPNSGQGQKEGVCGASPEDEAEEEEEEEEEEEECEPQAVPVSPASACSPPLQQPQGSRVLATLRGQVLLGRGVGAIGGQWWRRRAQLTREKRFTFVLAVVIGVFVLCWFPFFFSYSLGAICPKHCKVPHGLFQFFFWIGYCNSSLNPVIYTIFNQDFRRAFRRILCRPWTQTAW

T3: r GALR2 (Rattus norvegicus, UniProt O08726)
T3 construct: expressed in transfected cells; host or cells: COS-7
T3 sequence (O08726 1-372): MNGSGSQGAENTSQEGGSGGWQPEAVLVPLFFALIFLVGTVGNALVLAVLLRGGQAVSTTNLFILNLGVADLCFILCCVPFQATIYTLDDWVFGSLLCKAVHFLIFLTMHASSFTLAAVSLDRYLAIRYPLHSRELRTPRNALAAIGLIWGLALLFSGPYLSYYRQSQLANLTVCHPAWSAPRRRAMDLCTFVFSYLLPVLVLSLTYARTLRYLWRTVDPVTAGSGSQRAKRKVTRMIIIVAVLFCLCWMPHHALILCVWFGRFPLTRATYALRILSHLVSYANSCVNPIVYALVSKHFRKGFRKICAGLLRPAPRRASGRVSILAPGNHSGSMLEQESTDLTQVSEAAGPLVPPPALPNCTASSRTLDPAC

B1: cGαq/z5: chimeric Gα subunit: C-terminal final 5 amino acids of C. elegans Gαq replaced with those of hGαz (SEQ ID NO: 1) (protein)
chain: MACCLSEEAREQKRINQEIEKQLQRDKRNARRELKLLLLGTGESGKSTFIKQMRIIHGQGYSEEDKRAHIRLVYQNVFMAIQSMIRAMDTLDIKFGNESEELQEKAAVVREVDFESVTSFEEPYVSYIKELWEDSGIQECYDRRREYQLTDSAKYYLSDLRRLAVPDYLPTEQDILRVRVPTTGIIEYPFDLEQIIFRMVDVGGQRSERRKWIHCFENVTSIMFLVALSEYDQVLVECDNENRMEESKALFRTIITYPWFTNSSVILFLNKKDLLEEKILYSHLADYFPEYDGPPRDPIAAREFILKMFVDLNPDADKIIYSHFTCATDTENIRFVFAAVKDTILQHNLKYIGLC
modifications: C. elegans
B2: cGαq/z9: C. elegans Gαq with Gαz portion of the C-terminal tail extended to 9 amino acids (SEQ ID NO: 2) (protein)
chain: B1 chain with H347N
modifications: C. elegans

Key:
Assay in all cases: Calcium mobilization (FLIPR, Fluo-3) in transfected COS-7 cells
Type in all cases: cell-based
[1] = biological target: h 5HT1D (Homo sapiens, UniProt P28221); settings: h 5HT1D + chimera in COS-7; agonist 5HT, max 100 μM
How it was run: (§1)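 COS-7 cells were transiently co-transfected (DEAE-dextran) with GPCR and chimeric G protein cDNA, 1:1 for a single chimera or 8:1:1 GPCR:Gαq/z:Gαq/s for the mix, and assayed two days later. Agonist-evoked Fluo-3 fluorescence was read by FLIPR over 3 min at room temperature.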

[2] = biological target: T4, r NTR1 (Rattus norvegicus, UniProt P20789); settings: r NTR1 + chimera in COS-7; agonist NT, max 1 μM
T4 construct: expressed in transfected cells; host or cells: COS-7
How it was run: as §1

[3] = biological target: h 5HT1B (Homo sapiens, UniProt P28222); settings: h 5HT1B + chimera in COS-7; agonist 5HT, max 100 μM
How it was run: as §1

[4] = biological target: T1, h Y1; settings: h Y1 + chimera in COS-7; agonist NPY, max 10 μM
How it was run: as §1

[5] = biological target: T2, h α2B adr; settings: h α2B adr + chimera in COS-7; agonist NE, max 100 μM
How it was run: as §1

[6] = biological target: h D3 (Homo sapiens, UniProt P35462); settings: h D3 + chimera in COS-7; agonist DA, max 100 μM
How it was run: as §1

[7] = biological target: m 5HT5A (Mus musculus, UniProt P30966); settings: m 5HT5A + chimera in COS-7; agonist 5HT, max 100 μM
How it was run: as §1

[8] = biological target: T3, r GALR2; settings: r GALR2 + chimera in COS-7; agonist GAL, max 10 μM
How it was run: as §1

[9] = biological target: h 5HT1E (Homo sapiens, UniProt P28566); settings: h 5HT1E + chimera in COS-7; agonist 5HT, max 100 μM
How it was run: as §1

h 5HT1D, sequence (P28221 whole entry): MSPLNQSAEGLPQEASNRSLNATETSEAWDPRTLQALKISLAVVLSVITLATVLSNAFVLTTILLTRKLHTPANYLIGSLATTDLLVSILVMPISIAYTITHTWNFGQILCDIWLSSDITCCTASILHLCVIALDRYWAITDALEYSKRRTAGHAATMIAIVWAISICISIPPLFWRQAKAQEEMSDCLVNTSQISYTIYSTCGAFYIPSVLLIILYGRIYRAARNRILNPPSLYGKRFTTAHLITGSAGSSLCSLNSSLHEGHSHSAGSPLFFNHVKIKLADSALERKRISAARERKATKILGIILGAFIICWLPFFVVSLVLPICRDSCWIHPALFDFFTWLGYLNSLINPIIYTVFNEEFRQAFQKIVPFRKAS
m 5HT5A, sequence (P30966 whole entry): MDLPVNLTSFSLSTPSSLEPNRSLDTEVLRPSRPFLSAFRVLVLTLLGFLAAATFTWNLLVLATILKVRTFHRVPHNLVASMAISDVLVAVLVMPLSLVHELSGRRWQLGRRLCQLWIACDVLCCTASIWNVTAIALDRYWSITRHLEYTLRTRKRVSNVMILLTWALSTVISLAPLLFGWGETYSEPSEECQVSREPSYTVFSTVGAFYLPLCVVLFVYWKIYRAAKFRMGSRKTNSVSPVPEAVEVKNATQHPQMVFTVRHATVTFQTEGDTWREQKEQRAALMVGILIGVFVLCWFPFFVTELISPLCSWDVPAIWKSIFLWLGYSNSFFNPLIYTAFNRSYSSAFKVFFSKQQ
T4 sequence (P20789 whole entry): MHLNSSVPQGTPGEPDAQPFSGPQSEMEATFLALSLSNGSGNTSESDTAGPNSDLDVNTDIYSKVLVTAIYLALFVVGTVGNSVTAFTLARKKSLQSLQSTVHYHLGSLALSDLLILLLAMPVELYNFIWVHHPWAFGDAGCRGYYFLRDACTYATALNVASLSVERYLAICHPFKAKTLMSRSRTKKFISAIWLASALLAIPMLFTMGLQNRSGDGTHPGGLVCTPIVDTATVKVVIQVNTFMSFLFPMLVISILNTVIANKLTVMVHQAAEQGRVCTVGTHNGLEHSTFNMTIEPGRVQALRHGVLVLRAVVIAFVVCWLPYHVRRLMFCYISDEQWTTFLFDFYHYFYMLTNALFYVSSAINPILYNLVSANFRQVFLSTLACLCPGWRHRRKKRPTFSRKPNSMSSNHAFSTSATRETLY
h D3, sequence (P35462 whole entry): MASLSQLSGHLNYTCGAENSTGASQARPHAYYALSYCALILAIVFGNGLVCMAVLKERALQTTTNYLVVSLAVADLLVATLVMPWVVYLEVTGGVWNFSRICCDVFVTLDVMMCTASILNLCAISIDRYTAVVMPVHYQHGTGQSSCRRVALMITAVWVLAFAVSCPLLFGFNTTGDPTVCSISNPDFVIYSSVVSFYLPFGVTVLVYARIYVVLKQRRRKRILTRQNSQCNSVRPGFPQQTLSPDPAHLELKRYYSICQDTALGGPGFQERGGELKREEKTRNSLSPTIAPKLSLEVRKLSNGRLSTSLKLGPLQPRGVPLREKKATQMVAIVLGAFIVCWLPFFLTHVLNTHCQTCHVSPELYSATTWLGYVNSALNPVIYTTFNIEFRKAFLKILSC
h 5HT1B, sequence (P28222 whole entry): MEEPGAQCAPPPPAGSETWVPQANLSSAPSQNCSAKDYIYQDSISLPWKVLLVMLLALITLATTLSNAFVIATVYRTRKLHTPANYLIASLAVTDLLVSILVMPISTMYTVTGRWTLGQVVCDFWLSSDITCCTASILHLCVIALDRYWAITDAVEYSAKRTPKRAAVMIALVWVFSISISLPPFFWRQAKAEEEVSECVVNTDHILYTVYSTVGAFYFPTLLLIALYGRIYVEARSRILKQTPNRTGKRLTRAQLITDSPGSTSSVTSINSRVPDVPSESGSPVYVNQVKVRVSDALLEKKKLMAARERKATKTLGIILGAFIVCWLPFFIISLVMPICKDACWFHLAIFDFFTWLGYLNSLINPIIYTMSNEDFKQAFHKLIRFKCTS
h 5HT1E, sequence (P28566 whole entry): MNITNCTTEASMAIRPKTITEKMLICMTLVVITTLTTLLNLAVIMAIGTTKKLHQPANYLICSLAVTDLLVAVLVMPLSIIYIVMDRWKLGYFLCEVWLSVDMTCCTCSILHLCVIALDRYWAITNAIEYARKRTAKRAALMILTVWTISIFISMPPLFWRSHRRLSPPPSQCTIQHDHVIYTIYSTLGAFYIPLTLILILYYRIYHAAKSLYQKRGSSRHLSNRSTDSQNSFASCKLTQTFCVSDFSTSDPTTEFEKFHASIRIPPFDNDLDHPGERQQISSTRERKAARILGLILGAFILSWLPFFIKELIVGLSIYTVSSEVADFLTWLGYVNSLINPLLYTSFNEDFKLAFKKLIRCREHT

| Molecule | MAXIMAL SIGNAL (FLUORESCENCE UNITS) [1] [fluorescence units] | MAXIMAL SIGNAL (FLUORESCENCE UNITS) [2] [fluorescence units] | MAXIMAL SIGNAL (FLUORESCENCE UNITS) [3] [fluorescence units] | MAXIMAL SIGNAL (FLUORESCENCE UNITS) [4] [fluorescence units] | MAXIMAL SIGNAL (FLUORESCENCE UNITS) [5] [fluorescence units] | MAXIMAL SIGNAL (FLUORESCENCE UNITS) [6] [fluorescence units] | MAXIMAL SIGNAL (FLUORESCENCE UNITS) [7] [fluorescence units] | MAXIMAL SIGNAL (FLUORESCENCE UNITS) [8] [fluorescence units] | MAXIMAL SIGNAL (FLUORESCENCE UNITS) [9] [fluorescence units] |
| --- | --- | --- | --- | --- | --- | --- | --- | --- | --- |
| B1 | 414 | 14476 | 929 | 7722 | 4983 | 0 | 351 | 4198 | 229 |
| B2 | 504 | 6111 | 1217 | 6728 | 5138 | 121 | 270 | 4470 | 238 |
